Values quoted from earlier work in article PMC5193440.

biological target: Cys30 (UniProt position 49, FFSFFCPHCYQ); settings: reduced active site (dithiol form)

| Substance | pKa |
| --- | --- |
| DsbA (thiol:disulfide interchange protein, EcDsbA) (Escherichia coli) | 3.3 ± 0.09 |

tested on: Cys; settings: not stated

| Substance | pKa |
| --- | --- |
| DsbA (SaDsbA) (Staphylococcus aureus) | 3.4 ± 0.07 |
| DsbA (SeDsbA) (Salmonella enterica (inferred from the abbreviation; the article only calls it an enterobacterial DsbA)) | 3.3 ± 0.06 |
| DsbA (MtbDsbA, Rv2969c) (Mycobacterium tuberculosis) | 4.2 ± 0.2 |
| DsbA1 (WpDsbA1, alpha-DsbA1), wild type (Wolbachia pipientis) | 4.7 ± 0.08 |
| DsbA (VcDsbA, TcpG) (Vibrio cholerae) | 5.1 |
| DsbA1 (NmDsbA1) (Neisseria meningitidis) | 3.0 |
| DsbA (KpDsbA) (Klebsiella pneumoniae) | 3.2 |
